These results are taken from article PMC3921932.

This experiment has as its target recombinant manganese superoxide dismutase (MnSOD) from Lactococcus lactis M4 (Lactococcus lactis M4) (UniProt P0A4J2). The experiment in a line: SEC; Superose 12 HR 16/70 packed column, 20 mM phosphate buffer, 0.15 M NaCl, pH 7.0, 0.75 mL/min; calibrated with aprotinin, cytochrome c, carbonic anhydrase and BSA; estimated mass 63 kDa against 55.4 kDa theoretical for a dimer.

As to “recombinant manganese superoxide dismutase (MnSOD) from Lactococcus lactis M4 (from UniProt P0A4J2 1-206) (enzyme)”, the stoichiometry N is 2.

In general, stoichiometry N refers to a count of units in the complex or per binding partner.
